Laboratory results as given in paper PMC7321188.

How the values were obtained:
Conditions in all cases: remark: other sources report otherwise
[1] = target: G2019S LRRK2-GFP (Parkinson's disease mutant of Leucine-Rich Repeat Kinase 2, GFP fusion) (UniProt Q5S007); experiment: fluorescence fluctuation spectroscopy (number and brightness + photon counting histogram); two-photon confocal, cytosol of live differentiated SH-SY5Y cells at 37 °C; brightness normalised to monomeric GFP; LRRK2-GFP below 300 nM
[2] = target: G2019S LRRK2-GFP (Parkinson's disease mutant of Leucine-Rich Repeat Kinase 2, GFP fusion) (UniProt Q5S007); experiment: fluorescence fluctuation spectroscopy (number and brightness) by TIRF microscopy; TIRF, near the plasma membrane of live differentiated SH-SY5Y cells; brightness normalised to monomeric GFP
[3] = target: WT LRRK2-GFP (Leucine-Rich Repeat Kinase 2, wild type, GFP fusion) (UniProt Q5S007); experiment: as above

## G2019S LRRK2-GFP (Parkinson's disease mutant of Leucine-Rich Repeat Kinase 2, GFP fusion), Q5S007 1-2527
[1]
  normalized brightness (sample over the monomer control): 2.1
[2]
  normalized brightness (sample over the monomer control): 2.5

## WT LRRK2-GFP (Leucine-Rich Repeat Kinase 2, wild type, GFP fusion), Q5S007 1-2527
[3]
  normalized brightness (sample over the monomer control): 2.5
